In this assay the target is metastin receptor (OT7T175) stably expressed on CHO/dhfr- cells (human or rat, not given). Description: cell-based or functional assay.

For 17 molecules, Specific Activity (EC50 of test compound based on EC50 of Metastin (45-54)); agonist activity, intracellular calcium ion level, FLIPR (ratio to Metastin (45-54)) results are on record in patent US7786083B2, “Metastin derivatives and use thereof” (Takeda Pharmaceutical Company Limited, priority 2006, dated 2010).

*1 amine or outer side, *2 acyl side, *3 side chain or, on linkers, in order; H or OH if unused. [ ]: non-standard residue; d: D form. Ser(Me) = O-methylserine, COC[C@H](N[*:1])C(=O)[*:2]; 2Nal = N[C@@H](Cc1ccc2ccccc2c1)C(=O)O; Arg(Me) = CNC(=N)NCCC[C@H](N)C(=O)O; Dap(CONH2) = NC(=O)NC[C@H](N)C(=O)O; Ala(cPr) = N[C@@H](CC1CC1)C(=O)O; Hyp = O=C(O)[C@@H]1C[C@@H](O)CN1; tBuAla = CC(C)(C)C[C@H](N)C(=O)O; Cha = N[C@@H](CC1CCCCC1)C(=O)O; Nle = CCCC[C@H](N)C(=O)O; Nva = CCC[C@H](N)C(=O)O

B1: des(1)-Ac-[D-Tyr2,Glu3,Thr5,Cha6,Nva8,Arg(Me)9,Trp10]MS10 (peptide)
peptide: Ac-[dY]ENT[Cha]G[Nva][Arg(Me)]W-NH2
B1: the Specific Activity (EC50 of test compound based on EC50 of Metastin (45-54)); agonist activity, intracellular calcium ion level, FLIPR (ratio to Metastin (45-54)) is 0.4.

B2: des(1)-Ac-[D-Tyr2,Hyp3,Thr5,Cha6,Ala(cPr)8,Trp10]MS10 (peptide)
peptide: Ac-[dY][Hyp]NT[Cha]G[Ala(cPr)]RW-NH2
SMILES: CC(=O)N[C@H](Cc1ccc(O)cc1)C(=O)N1C[C@H](O)C[C@H]1C(=O)N[C@@H](CC(N)=O)C(=O)N[C@H](C(=O)N[C@@H](CC1CCCCC1)C(=O)NCC(=O)N[C@@H](CC1CC1)C(=O)N[C@@H](CCCNC(=N)N)C(=O)N[C@@H](Cc1c[nH]c2ccccc12)C(N)=O)[C@@H](C)O
In the case of B2, the Specific Activity (EC50 of test compound based on EC50 of Metastin (45-54)); agonist activity, intracellular calcium ion level, FLIPR (ratio to Metastin (45-54)) is 0.5.

B3: des(1)-Ac-[D-Tyr2,Hyp3,Thr5,Nal(2)6,Arg(Me)9,Trp10]MS10 (peptide)
peptide: Ac-[dY][Hyp]NT[2Nal]GL[Arg(Me)]W-NH2
modifications: not fully specified (residue 7); printed as Ac-D-Tyr-Hyp-Asn-Thr-Nal(2)-Gly-Ala(cPr)-Arg(Me)-Trp-NH2
As to B3, the Specific Activity (EC50 of test compound based on EC50 of Metastin (45-54)); agonist activity, intracellular calcium ion level, FLIPR (ratio to Metastin (45-54)) came to 1.

B4: des(1)-Ac-[D-Tyr2,Hyp3,Thr5,Cha6,Gly7Ψ((E)CH═CH)Leu8,Trp10]MS10 (peptide)
peptide: Ac-[dY][Hyp]NT[Cha]GLRW-NH2
modifications: also: Gly6-Leu7 -CONH- replaced by (E) CH=CH
Regarding B4, the Specific Activity (EC50 of test compound based on EC50 of Metastin (45-54)); agonist activity, intracellular calcium ion level, FLIPR (ratio to Metastin (45-54)) came to 0.6.

B5: des(1)-Ac-[D-Tyr2,Hyp3,Thr5,Ser(Me)8,Arg(Me)9,Trp10]MS10 (peptide)
peptide: Ac-[dY][Hyp]NTFG[Ser(Me)][Arg(Me)]W-NH2
For B5, the Specific Activity (EC50 of test compound based on EC50 of Metastin (45-54)); agonist activity, intracellular calcium ion level, FLIPR (ratio to Metastin (45-54)) came out at 0.8.

B6: des(1)-Ac-[D-Tyr2,Hyp3,Thr5,Nva8,Arg(Me)9,Trp10]MS10 (peptide)
peptide: Ac-[dY][Hyp]NTFG[Nva][Arg(Me)]W-NH2
On to B6, for which the Specific Activity (EC50 of test compound based on EC50 of Metastin (45-54)); agonist activity, intracellular calcium ion level, FLIPR (ratio to Metastin (45-54)) worked out at 0.7.

B7: des(1)-Ac-[D-Tyr2,Glu3,Thr5,Cha6,Ser(Me)8,Arg(Me)9,Trp10]MS10 (peptide)
peptide: Ac-[dY]ENT[Cha]G[Ser(Me)][Arg(Me)]W-NH2
As to B7, the Specific Activity (EC50 of test compound based on EC50 of Metastin (45-54)); agonist activity, intracellular calcium ion level, FLIPR (ratio to Metastin (45-54)) was 0.5.

B8: des(1)-Ac-[D-Tyr2,Hyp3,Thr5,Gly7Ψ((E)CH═CH)Leu8,Trp10]MS10 (peptide)
peptide: Ac-[dY][Hyp]NTFGLRW-NH2
modifications: also: Gly6-Leu7 -CONH- replaced by (E) CH=CH
Regarding B8, the Specific Activity (EC50 of test compound based on EC50 of Metastin (45-54)); agonist activity, intracellular calcium ion level, FLIPR (ratio to Metastin (45-54)) was determined as 0.4.

B9: des(1)-Ac-[D-Tyr2,Hyp3,Alb4,Thr5,Cha6,Gly7Ψ((E)CH═CH)Leu8,Trp10]MS10 (peptide)
peptide: Ac-[dY][Hyp][Dap(CONH2)]T[Cha]GLRW-NH2
modifications: also: Gly6-Leu7 -CONH- replaced by (E)-CH=CH-
For B9, the Specific Activity (EC50 of test compound based on EC50 of Metastin (45-54)); agonist activity, intracellular calcium ion level, FLIPR (ratio to Metastin (45-54)) turned out to be 0.5.

B10: des(1)-Ac-[D-Tyr2,Hyp3,Thr5,Gly7Ψ(CH2S)Leu8,Arg(Me)9,Trp10]MS10 (peptide)
peptide: Ac-[dY][Hyp]NTFGL[Arg(Me)]W-NH2
modifications: also: Gly6-Leu7 -CONH- replaced by -CH2S-
Consider B10, for which the Specific Activity (EC50 of test compound based on EC50 of Metastin (45-54)); agonist activity, intracellular calcium ion level, FLIPR (ratio to Metastin (45-54)) was 1.2.

B11: des(1)-Ac-[D-Tyr2,Hyp3,Thr5,Cha6,8,Arg(Me)9,Trp10]MS10 (peptide)
peptide: Ac-[dY][Hyp]NT[Cha]G[Cha][Arg(Me)]W-NH2
SMILES: CNC(=N)NCCC[C@H](NC(=O)[C@H](CC1CCCCC1)NC(=O)CNC(=O)[C@H](CC1CCCCC1)NC(=O)[C@@H](NC(=O)[C@H](CC(N)=O)NC(=O)[C@@H]1C[C@@H](O)CN1C(=O)[C@@H](Cc1ccc(O)cc1)NC(C)=O)[C@@H](C)O)C(=O)N[C@@H](Cc1c[nH]c2ccccc12)C(N)=O
Take B11: the Specific Activity (EC50 of test compound based on EC50 of Metastin (45-54)); agonist activity, intracellular calcium ion level, FLIPR (ratio to Metastin (45-54)) turned out to be 3.5.

B12: des(1)-Ac-[D-Tyr2,Hyp3,Thr5,Cha6,Nva8,Arg(Me)9,Trp10]MS10 (peptide)
peptide: Ac-[dY][Hyp]NT[Cha]G[Nva][Arg(Me)]W-NH2
SMILES: CCC[C@H](NC(=O)CNC(=O)[C@H](CC1CCCCC1)NC(=O)[C@@H](NC(=O)[C@H](CC(N)=O)NC(=O)[C@@H]1C[C@@H](O)CN1C(=O)[C@@H](Cc1ccc(O)cc1)NC(C)=O)[C@@H](C)O)C(=O)N[C@@H](CCCNC(=N)NC)C(=O)N[C@@H](Cc1c[nH]c2ccccc12)C(N)=O
As to B12, the Specific Activity (EC50 of test compound based on EC50 of Metastin (45-54)); agonist activity, intracellular calcium ion level, FLIPR (ratio to Metastin (45-54)) is 0.5.

B13: des(1)-Ac-[D-Tyr2,Hyp3,Thr5,Cha6,Gly7Ψ(CH2S)Leu8,Arg(Me)9,Trp10]MS10 (peptide)
peptide: Ac-[dY][Hyp]NT[Cha]GL[Arg(Me)]W-NH2
modifications: also: Gly6-Leu7 -CONH- replaced by -CH2S-
On to B13, for which the Specific Activity (EC50 of test compound based on EC50 of Metastin (45-54)); agonist activity, intracellular calcium ion level, FLIPR (ratio to Metastin (45-54)) came to 1.7.

B14: des(1)-Ac-[D-Tyr2,Hyp3,Thr5,Cha6,Nle8,Arg(Me)9,Trp10]MS10 (peptide)
peptide: Ac-[dY][Hyp]NT[Cha]G[Nle][Arg(Me)]W-NH2
SMILES: CCCC[C@H](NC(=O)CNC(=O)[C@H](CC1CCCCC1)NC(=O)[C@@H](NC(=O)[C@H](CC(N)=O)NC(=O)[C@@H]1C[C@@H](O)CN1C(=O)[C@@H](Cc1ccc(O)cc1)NC(C)=O)[C@@H](C)O)C(=O)N[C@@H](CCCNC(=N)NC)C(=O)N[C@@H](Cc1c[nH]c2ccccc12)C(N)=O
For B14, the Specific Activity (EC50 of test compound based on EC50 of Metastin (45-54)); agonist activity, intracellular calcium ion level, FLIPR (ratio to Metastin (45-54)) came to 0.6.

B15: des(1)-Ac-[D-Tyr2,Hyp3,Thr5,Cha6,Ser(Me)8,Arg(Me)9,Trp10]MS10 (peptide)
peptide: Ac-[dY][Hyp]NT[Cha]G[Ser(Me)][Arg(Me)]W-NH2
SMILES: CNC(=N)NCCC[C@H](NC(=O)[C@H](COC)NC(=O)CNC(=O)[C@H](CC1CCCCC1)NC(=O)[C@@H](NC(=O)[C@H](CC(N)=O)NC(=O)[C@@H]1C[C@@H](O)CN1C(=O)[C@@H](Cc1ccc(O)cc1)NC(C)=O)[C@@H](C)O)C(=O)N[C@@H](Cc1c[nH]c2ccccc12)C(N)=O
Regarding B15, the Specific Activity (EC50 of test compound based on EC50 of Metastin (45-54)); agonist activity, intracellular calcium ion level, FLIPR (ratio to Metastin (45-54)) worked out at 0.5.

B16: des(1)-Ac-[D-Tyr2,Hyp3,Thr5,Cha6,Leu(Me)8,Arg(Me)9,Trp10]MS10 (peptide)
peptide: Ac-[dY][Hyp]NT[Cha]G[tBuAla][Arg(Me)]W-NH2
SMILES: CNC(=N)NCCC[C@H](NC(=O)[C@H](CC(C)(C)C)NC(=O)CNC(=O)[C@H](CC1CCCCC1)NC(=O)[C@@H](NC(=O)[C@H](CC(N)=O)NC(=O)[C@@H]1C[C@@H](O)CN1C(=O)[C@@H](Cc1ccc(O)cc1)NC(C)=O)[C@@H](C)O)C(=O)N[C@@H](Cc1c[nH]c2ccccc12)C(N)=O
As for B16, the Specific Activity (EC50 of test compound based on EC50 of Metastin (45-54)); agonist activity, intracellular calcium ion level, FLIPR (ratio to Metastin (45-54)) amounted to 1.4.

B17: des(1)-Ac-[D-Tyr2,Hyp3,Thr5,Cha6,Arg(Me)9,Trp10]MS10 (peptide)
peptide: Ac-[dY][Hyp]NT[Cha]GL[Arg(Me)]W-NH2
SMILES: CNC(=N)NCCC[C@H](NC(=O)[C@H](CC(C)C)NC(=O)CNC(=O)[C@H](CC1CCCCC1)NC(=O)[C@@H](NC(=O)[C@H](CC(N)=O)NC(=O)[C@@H]1C[C@@H](O)CN1C(=O)[C@@H](Cc1ccc(O)cc1)NC(C)=O)[C@@H](C)O)C(=O)N[C@@H](Cc1c[nH]c2ccccc12)C(N)=O
For B17, the Specific Activity (EC50 of test compound based on EC50 of Metastin (45-54)); agonist activity, intracellular calcium ion level, FLIPR (ratio to Metastin (45-54)) came to 0.3.
